According to patent publication US20130059773A1, “COMPOUNDS FOR THE TREATMENT OF INFLAMMATION AND NEUTROPENIA” (priority 2010, published 2013):

T1: procaspase-9 (Homo sapiens, UniProt P55211)
T1 construct: using neutrophil cytosol containing all the apoptosome components, i.e., procaspase-9; endogenous in cells; host or cells: neutrophil cytosol (primary neutrophils)
T1 sequence (P55211 1-416): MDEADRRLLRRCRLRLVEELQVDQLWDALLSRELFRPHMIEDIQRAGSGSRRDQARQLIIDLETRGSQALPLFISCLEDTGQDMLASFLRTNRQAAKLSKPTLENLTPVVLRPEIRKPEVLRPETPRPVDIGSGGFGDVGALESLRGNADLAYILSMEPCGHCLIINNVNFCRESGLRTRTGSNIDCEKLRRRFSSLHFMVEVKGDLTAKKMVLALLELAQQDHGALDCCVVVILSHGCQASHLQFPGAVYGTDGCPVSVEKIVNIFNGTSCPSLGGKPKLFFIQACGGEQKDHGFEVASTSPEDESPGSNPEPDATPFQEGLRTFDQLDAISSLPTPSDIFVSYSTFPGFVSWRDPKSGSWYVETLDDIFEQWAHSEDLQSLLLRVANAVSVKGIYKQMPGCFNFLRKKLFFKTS


What was measured:
[1] = biological target: T1, procaspase-9; test: In vitro procaspase-9 activation assay using neutrophil cytosol, cytochrome c and dATP; type: biochemical; parameters: dose or concentration left out as unconfirmed
Experimental: That hypothesis was tested by evaluating procaspase-9 cleavage in an in vitro assay, using neutrophil cytosol containing all the apoptosome components, i.e., procaspase-9 and apoptotic protease-activating factor-1 (Apaf-1) as previously described (McStay et al. 2008; Cell Death Differ. 15:322-331).

[2] = tested on: neutrophils; test: Neutrophil apoptosis/survival by phosphatidylserine externalization after annexin-V and 7-AAD labeling; type: cell-based, human; conditions: G-CSF 200 or 1000 U/ml, 15 h at 37° C.
Experimental: Analysis of apoptosis. Neutrophil apoptosis was triggered by incubating neutrophils at 37° C. alone (constitutive apoptosis) or with anti-Fas mAb (10 ng/ml; Beckman-Coulter) or gliotoxin ([…]; Sigma) (Ward et al. 1999, J. Biol. Chem. 274:4309-4318) for the indicated times. Neutrophil apoptosis was evaluated by phosphatidylserine externalization after annexin-V and 7-AAD labeling (Kantari et al. 2007, Blood 110:4086-4095); mitochondrial depolarization after DiOC6 labeling (Moriceau et al. 2009, J. Immuno1.182:7254-7263); caspase-3 and caspase-8 activities measured by spectrophotometry (Biovision) in neutrophil lysates. In DMF-differentiated-PLB985 cells, apoptosis was triggered by gliotoxin or by rTRAIL (10 ng/ml; RD System) (Yin et al. 2005, Int. J. Biochem. Cell Biol. 37:1696-1708) and caspase-8 and caspase-9 activities were determined after gating on CD11b^+ cells using the Caspase-Glow® assay (Promega). Apoptosis-induced chromatin condensation and DNA fragmentation were assessed, respectively, after DNA staining with the blue fluorescent dye Hoechst (5 mg/ml) and propidium-iodide staining (Goepel et al. 2004, J. Leukoc. Biol. 75:836-843). Carboxyp21 ([…], SEQ ID NO: 24) corresponding to the p21 carboxy-terminus sequence (residues 141-160) and containing a RYIRS carboxy-terminal extension to facilitate its cell entry was synthesized and purified (Genecust). […]

[3] = tested on: PCNA; test: PCNA expression in neutrophils by Western blot; type: cell-based, human; conditions: G-CSF 1000 U/ml, 6 h to 15 h
Experimental: Western blot analysis and co-immunoprecipitation experiments. Neutrophils were sonicated and cytosolic proteins were analyzed using either the PC10 mAb or the Ab5 pAb anti-PCNA according to standard immunoblot procedures (Moriceau et al. 2009, J. Immunol. 182:7254-7263). Co-immunoprecipitation experiments were performed using neutrophil cytosols obtained by cavitation (Witko-Sarsat et al. 1999, Blood 94:2487-2496). Cytosol ([…]) was mixed with […] of protein G and Ab5 pAb and incubated for 30 min at 4° C. under shaking. The sample was loaded onto a column containing Sepharose-coated magnetic beads (Milteny), washed with a stringent washing buffer (50 mM Tris, 500 mM NaCl, 1% NP-40, 0.5% Triton X-100). […] The sample was eluted from the column with […] 5× sample buffer and analyzed by Western blotting using different mAb to potential partners. PCNA was detected on the Western blot with the PC10 mAb and procaspases were detected with either anti-procaspase-8 (Calbiochem) mAb or mouse anti-procaspase-10 (Santa Cruz) or anti-procaspase-9 (Santa Cruz) or anti-procaspase-3 (Santa Cruz) mAbs, followed by horseradish peroxidase-conjugated anti-mouse IgG (Nordic Immunology diluted 1:5000), using the SuperSignal West Pico detection kit (Pierce).

[4] = tested on: neutrophils; test: Neutrophils isolated from G-CSF-treated healthy donors: PCNA content and constitutive apoptosis; type: in vivo, human
Experimental: Neutrophil isolation, granulocytic differentiation of CD34^+ precursors and cell culture. Human neutrophils from healthy (Etablissement Francais du Sang, Paris) or G-CSF-treated healthy donors ([…] for 5 days to induce hematopoietic stem cells mobilization) (Biotherapy Department, Necker Hospital, France) were isolated from EDTA-anticoagulated blood, using density-gradient centrifugation through polymorphoprep (Nycomed), as described in Witko-Sarsat et al. (1999, Blood 94:2487-2496). […]
Western blot analysis and co-immunoprecipitation experiments. Neutrophils were sonicated and cytosolic proteins were analyzed using either the PC10 mAb or the Ab5 pAb anti-PCNA according to standard immunoblot procedures (Moriceau et al. 2009, J. Immunol. 182:7254-7263). […] The sample was eluted from the column with […] 5× sample buffer and analyzed by Western blotting using different mAb to potential partners. PCNA was detected on the Western blot with the PC10 mAb and procaspases were detected with either anti-procaspase-8 (Calbiochem) mAb or mouse anti-procaspase-10 (Santa Cruz) or anti-procaspase-9 (Santa Cruz) or anti-procaspase-3 (Santa Cruz) mAbs, followed by horseradish peroxidase-conjugated anti-mouse IgG (Nordic Immunology diluted 1:5000), using the SuperSignal West Pico detection kit (Pierce).

Molecule	Procaspase-9 cleavage / activation [1]	Neutrophil survival (annexin-V− 7-AAD− cells) [2]	Effect on decrease of PCNA expression during incubation at 37° C. [3]	PCNA content of neutrophils from treated donors (immunoblotting) ([4]; healthy donors treated with G-CSF for 5 days, compared to before treatment)	Constitutive apoptosis of neutrophils from treated donors ([4]; healthy donors treated with G-CSF, 15-h culture)
Ovalbumin: control protein tested at the same concentration (protein, UniProt P01012 2-386, looked up) Ovalbumin: GSIGAASMEFCFDVFKELKVHHANENIFYCPIAIMSALAMVYLGAKDSTRTQINKVVRFDKLPGFGDSIEAQCGTSVNVHSSLRDILNQITKPNDVYSFSLASRLYAEERYPILPEYLQCVKELYRGGLEPINFQTAADQARELINSWVESQTNGIIRNVLQPSSVDSQTAMVLVNAIVFKGLWEKAFKDEDTQAMPFRVTEQESKPVQMMYQIGLFRVASMASEKMKILELPFASGTMSMLVLLPDEVSGLEQLESIINFEKLTEWTSSNVMEERKIKVYLPRMKMEEKYNLTSVLMAMGITDVFSSSANLSGISSAESLKISQAVHAAHAEINEAGREVVGSAEAGVDAASVSEEFRADHPFLFCIKHIATNAVLFFGRCVSP	did not affect pro-caspase 9 activation	–	–	–	–
G-CSF: survival factor extending neutrophil longevity (protein, UniProt P09919 31-207, looked up) Granulocyte …: TPLGPASSLPQSFLLKCLEQVRKIQGDGAALQEKLVSECATYKLCHPEELVLLGHSLGIPWAPLSSCPSQALQLAGCLSQLHSGLFLYQGLLQALEGISPELGPTLDTLQLDVADFATTIWQQMEELGMAPALQPTQGAMPAFASAFQRRAGGVLVASHLQSFLEVSYRVLRHLAQP	–	prolonged neutrophil survival	totally prevented	markedly increased	decreased tendency of these neutrophils to undergo constitutive apoptosis
